Experimental data: patent publication US20050267024A1 (published 2005)
Substitutions are numbered along the chain they refer to.

T1: VEGFR-3-Fc (human, UniProt P35916 25-328)
T1 construct: domain: first three Ig domains; used as conditioned supernatant of 293T cells; also called VEGFR-3-Fc fusion protein; not shown: Fc fragment of the pIg vector
T1 sequence (looked up): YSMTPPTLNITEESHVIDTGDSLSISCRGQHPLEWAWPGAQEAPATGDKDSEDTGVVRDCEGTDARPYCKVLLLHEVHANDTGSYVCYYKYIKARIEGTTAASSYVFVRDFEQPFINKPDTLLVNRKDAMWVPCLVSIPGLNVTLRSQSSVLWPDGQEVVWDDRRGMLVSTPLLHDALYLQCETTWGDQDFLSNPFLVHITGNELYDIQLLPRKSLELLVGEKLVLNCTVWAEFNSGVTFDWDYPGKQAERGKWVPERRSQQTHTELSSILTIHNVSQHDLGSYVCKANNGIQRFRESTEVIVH

B1: 72-7 (ligand)
chain: GQNHHEVVKSIDNEWRKTQCMPREVCIDVGKEFGVATNTFFKPPCVSVYRCGGCCNSEGLQCVPTEESNITMQIMRIKPHQGQHIGEMSFANHTSCRCMSKLD
B2: 11-1 (ligand)
chain: GQNHHEVVKFMDVYQRSYCHPIETLVDIFQEYPDEIEYIFKPSCVPLMRCGGCCNDEGLECVPTEESNITMQIMRIKPHQGQHIGEMSFLQHNKCECRPKKD
B3: 12-1 (ligand)
chain: GQNHHEVVKFMDVYQRSYCHPIETLVDIFQEFGVATNTFFKPPCVSVYRCGGCCNDEGLECVPTEESNITMQIMRIKPHQGQHIGEMSFLQHNKCECRPKKD
B4: 12-14 (ligand)
chain: GQNHHEVVKFMDVYQRSYCHPIETLVDIFQEFGVATNTFFKPPCVSVYRCGGCCNDEGLECMNTSTSYLSKTLFEITVPLSQGPKPVTISFANHTSCRCMSKLD
B5: 61-14 (ligand)
chain: GQNHHEVVKFMDVYQRSYCHPREVCIDVGKEYPDEIEYIFKPSCVPLMRCGGCCNDEGLECMNTSTSYLSKTLFEITVPLSQGPKPVTISFANHTSCRCMSKLD
B6: 83-15 (ligand)
chain: AHYNTEILKFMDVYQRSYCHPIETLVDIFQEYPDEIEYIFKPPCVSVYRCGGCCNSEGLQCVPTEESNITMQIMRITVPLSQGPKPVTISFANHTSCRCMSKLD
B7: 82-13 (ligand)
chain: B6 chain with Y32F, P33G, D34V, E35A, I36T, E37N, Y38T, I39F, S56D, Q60E
B8: 53-3 (ligand)
chain: AHYNTEILKSIDNEWRKTQCMPIETLVDIFQEYPDEIEYIFKPPCVSVYRCGGCCNSEGLQCVPTEESNITMQIMRIKPHQGQHIGEMSFLQHNKCECRPKKD
B9: 22-1 (ligand)
chain: AHYNTEILKSIDNEWRKTQCMPREVCIDVGKEFGVATNTFFKPPCVSVYRCGGCCNDEGLECVPTEESNITMQIMRIKPHQGQHIGEMSFLQHNKCECRPKKD
B10: 22-16 (ligand)
chain: AHYNTEILKSIDNEWRKTQCMPREVCIDVGKEFGVATNTFFKPPCVSVYRCGGCCNSEGLQCMNTSTSYLSKTLFEITVPLSQGPKPVTISFANHTSCRCMSKLD
B11: 14-9 (ligand)
chain: GQNHHEVVKFMDVYQRSYCHPIETLVDIFQEFGVATNTFFKPSCVPLMRCGGCCNDEGLECVPTEESNITMQIMRITVPLSQGPKPVTISFLQHNKCECRPKKD
B12: 82-7 (ligand)
chain: AHYNTEILKFMDVYQRSYCHPIETLVDIFQEFGVATNTFFKPPCVSVYRCGGCCNSEGLQCVPTEESNITMQIMRIKPHQGQHIGEMSFANHTSCRCMSKLD
B13: 12-7 (ligand)
chain: B12 chain with A1G, H2Q, Y3N, N4H, T5H, I7V, L8V
B14: 12-3 (ligand)
chain: B3 chain with D56S, E60Q
B15: 12-5 (ligand)
chain: B3 chain with L90A, Q91N, N93T, K94S, E96R, R98M, P99S, K101L
B16: 12-13 (ligand)
chain: GQNHHEVVKFMDVYQRSYCHPIETLVDIFQEFGVATNTFFKPPCVSVYRCGGCCNDEGLECVPTEESNITMQIMRITVPLSQGPKPVTISFANHTSCRCMSKLN
B17: 12-15 (ligand)
chain: B16 chain with D56S, E60Q, N104D
B18: 82-9 (ligand)
chain: AHYNTEILKFMDVYQRSYCHPIETLVDIFQEFGVATNTFFKPPCVSVYRCGGCCNDEGLECVPTEESNITMQIMRITVPLSQGPKPVTISFLQHNKCECRPKKD
B19: 84-9 (ligand)
chain: B18 chain with P43S, S46P, V47L, Y48M
B20: 82-11 (ligand)
chain: B18 chain with D56S, E60Q
B21: 12-11 (ligand)
chain: B11 chain with S43P, P46S, L47V, M48Y, D56S, E60Q
B22: 84-11 (ligand)
chain: B18 chain with P43S, S46P, V47L, Y48M, D56S, E60Q
B23: 12-9 (ligand)
chain: B11 chain with S43P, P46S, L47V, M48Y

These binders were tested against T2, VEGFR-2-Fc (human, UniProt P35968 20-322) (assay: receptor-Fc IP).
T2 construct: domain: first 3 Ig domains; used as conditioned supernatant of 293T cells; also called VEGFR-2-Fc fusion protein; not shown: Fc fragment of the pIg vector
T2 sequence (P35968 20-322): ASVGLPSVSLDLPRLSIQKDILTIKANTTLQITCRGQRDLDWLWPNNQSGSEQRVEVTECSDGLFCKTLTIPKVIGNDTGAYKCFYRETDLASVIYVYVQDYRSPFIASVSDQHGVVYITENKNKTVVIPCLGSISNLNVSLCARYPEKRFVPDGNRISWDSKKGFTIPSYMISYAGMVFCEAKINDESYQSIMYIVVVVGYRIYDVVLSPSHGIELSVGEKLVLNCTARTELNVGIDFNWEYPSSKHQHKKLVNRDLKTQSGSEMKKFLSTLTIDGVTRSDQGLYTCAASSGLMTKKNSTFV
Experimental: (§1) The binding assay procedure was identical to the immunoprecipitation using pentahistidine antibody described in Example 2, apart from the composition of the immunoprecipitation (IP) mixes. The IP mixes used for the receptor binding analysis were as follows: For VEGFR-1 binding assays, the IP mix was phosphate buffered saline (PBS) containing 1.5% BSA, 0.06% Tween 20, 3 μg/ml heparin and 400 ng/ml VEGFR-1-Fc fusion protein (100 μl of this IP mix was added to 200 μl of sample supernatant); for VEGFR-2 binding assays, the IP mix was 82% conditioned cell supernatant from 293T cells transiently expressing VEGFR-2-Fc fusion protein in mixture with 18% of a PBS solution that contained 5% BSA, 0.2% Tween 20, and 10 μg/ml heparin (250 μl of IP mix was added to 200 μl of sample supernatant); and for VEGFR-3 binding assays, the IP mix was 82% conditioned cell supernatant from 293T cells transiently expressing VEGFR-3-Fc fusion protein, 18% of PBS containing 5% BSA, 0.2% Tween 20, and 10 μg/ml heparin (250 μl of IP mix was added to 200 μl of sample supernatant).

Row | binding result | Binder
1 | no binding | B1
2 | binds | B2
3 | binds | B3
4 | no binding | B4
5 | no binding | B5
6 | binds | B6
7 | no binding | B7
8 | binds | B8
9 | no binding | B9
10 | binds | B10
11 | binds | B11
12 | binds | B12
13 | binds | B13
14 | binds | B14
15 | no binding | B15
16 | no binding | B16
17 | binds | B17
18 | binds | B18
19 | binds | B19
20 | binds | B20
21 | binds | B21
22 | binds | B22
23 | no binding | B23

The binders below were run against T1, VEGFR-3-Fc (assay: receptor-Fc IP).
Experimental: as §1

Row | binding result | Binder
24 | no binding | B1
25 | no binding | B2
26 | binds | B3
27 | binds | B4
28 | no binding | B5
29 | no binding | B6
30 | binds | B7
31 | binds | B8
32 | no binding | B9
33 | binds | B10
34 | binds | B11
35 | binds | B12
36 | binds | B13
37 | no binding | B14
38 | no binding | B15
39 | binds | B16
40 | binds | B17
41 | binds | B18
42 | binds | B19
43 | binds | B20
44 | binds | B21
45 | binds | B22
46 | binds | B23

The binders below were run against T3, VEGFR-1-Fc (human, UniProt P17948 27-331) (assay: receptor-Fc IP).
T3 construct: domain: first three Ig domains; expressed in Drosophila S2 cells, purified on Protein A sepharose; also called VEGFR-1-Fc fusion protein; not shown: Fc fragment from the Signal-pIgPlus vector
T3 sequence (P17948 27-331): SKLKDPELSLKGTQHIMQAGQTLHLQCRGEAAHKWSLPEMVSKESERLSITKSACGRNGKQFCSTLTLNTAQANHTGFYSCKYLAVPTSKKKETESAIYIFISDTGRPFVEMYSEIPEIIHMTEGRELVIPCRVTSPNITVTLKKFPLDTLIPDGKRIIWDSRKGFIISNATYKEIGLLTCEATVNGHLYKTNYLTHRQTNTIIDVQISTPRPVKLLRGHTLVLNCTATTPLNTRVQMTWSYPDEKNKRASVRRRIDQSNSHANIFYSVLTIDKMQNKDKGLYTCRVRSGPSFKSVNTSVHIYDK
Experimental: as §1

Row | binding result | Binder
47 | no binding | B1
48 | binds | B2
49 | binds | B3
50 | no binding | B4
51 | no binding | B5
52 | binds | B6
53 | binds | B7
54 | binds | B8
55 | no binding | B9
56 | no binding | B10
57 | binds | B11
58 | binds | B12
59 | binds | B13
60 | binds | B14
61 | binds | B15
62 | binds | B16
63 | no binding | B17
64 | binds | B18
65 | binds | B19
66 | binds | B20
67 | binds | B21
68 | binds | B22
69 | binds | B23
